Data from article PMC10397247.
Like-named read-outs stand apart in the source and are kept apart here. One block for each binder: values may come before it.

Tests used:
Experiment in all cases: two-hybrid library CCmax;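 note: natural log of median RNA to DNA barcode read ratio; higher means stronger binding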
4H_BCR = target: T1, 4H_BCR; settings: mean of both orientations
T1 chain: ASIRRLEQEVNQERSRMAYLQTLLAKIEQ

4H_GCN4 = target: 4H_GCN4
4H2611-AA = target: T2, 4H2611-AA
T2 chain: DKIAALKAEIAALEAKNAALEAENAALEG

4H384-AA = target: T3, 4H384-AA; settings: mean of both orientations
T3 chain: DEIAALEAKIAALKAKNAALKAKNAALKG

4H_APH = target: T4, 4H_APH
T4 chain: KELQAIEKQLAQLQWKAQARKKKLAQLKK

4H3590-AA = target: T5, 4H3590-AA; settings: mean of both orientations
T5 chain: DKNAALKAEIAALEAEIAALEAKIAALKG

4H249-AA = target: T6, 4H249-AA
T6 chain: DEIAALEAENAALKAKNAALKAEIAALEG

4H717-AA = target: T7, 4H717-AA; settings: mean of both orientations
T7 chain: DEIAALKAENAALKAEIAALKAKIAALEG

4H2253-AA = target: T8, 4H2253-AA; settings: mean of both orientations
T8 chain: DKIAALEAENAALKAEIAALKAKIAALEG

4H3606-AA = target: T9, 4H3606-AA; settings: mean of both orientations
T9 chain: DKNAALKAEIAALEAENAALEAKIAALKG

4H2774-AA = target: T10, 4H2774-AA; settings: mean of both orientations
T10 chain: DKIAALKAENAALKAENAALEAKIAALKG

4H2330-AA = target: T11, 4H2330-AA; settings: mean of both orientations
T11 chain: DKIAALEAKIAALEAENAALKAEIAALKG

4H3381-AA = target: T12, 4H3381-AA; settings: mean of both orientations
T12 chain: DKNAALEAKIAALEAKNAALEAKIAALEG

4H3120-AA = target: T13, 4H3120-AA; settings: mean of both orientations
T13 chain: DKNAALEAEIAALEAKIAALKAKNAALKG

4H2438-AA = target: T14, 4H2438-AA; settings: mean of both orientations
T14 chain: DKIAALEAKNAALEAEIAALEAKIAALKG

4H2865-AA = target: T15, 4H2865-AA; settings: mean of both orientations
T15 chain: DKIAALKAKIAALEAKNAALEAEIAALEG

4H458-AA = target: T16, 4H458-AA; settings: mean of both orientations
T16 chain: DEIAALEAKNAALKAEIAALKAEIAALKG

4H2473-AA = target: T17, 4H2473-AA; settings: mean of both orientations
T17 chain: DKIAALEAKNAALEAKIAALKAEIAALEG

4H710-AA = target: T18, 4H710-AA; settings: mean of both orientations
T18 chain: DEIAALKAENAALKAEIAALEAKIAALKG

4H3410-AA = target: T19, 4H3410-AA; settings: mean of both orientations
T19 chain: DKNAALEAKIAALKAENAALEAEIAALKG

4H930-AA = target: T20, 4H930-AA; settings: mean of both orientations
T20 chain: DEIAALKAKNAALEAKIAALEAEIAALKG

4H629-AA = target: T21, 4H629-AA; settings: mean of both orientations
T21 chain: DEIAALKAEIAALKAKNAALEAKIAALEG

4H3753-AA = target: T22, 4H3753-AA; settings: mean of both orientations
T22 chain: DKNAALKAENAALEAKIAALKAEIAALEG

4H3016-AA = target: T23, 4H3016-AA; settings: mean of both orientations
T23 chain: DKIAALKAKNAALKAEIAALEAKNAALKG

4H2274-AA = target: T24, 4H2274-AA; settings: mean of both orientations
T24 chain: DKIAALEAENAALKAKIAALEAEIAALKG

4H2389-AA = target: T25, 4H2389-AA; settings: mean of both orientations
T25 chain: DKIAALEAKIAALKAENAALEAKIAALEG

4H310-AA = target: T26, 4H310-AA; settings: mean of both orientations
T26 chain: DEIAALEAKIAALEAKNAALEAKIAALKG

4H94-AA = target: T27, 4H94-AA; settings: mean of both orientations
T27 chain: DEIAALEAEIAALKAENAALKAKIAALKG

4H850-AA = target: T28, 4H850-AA; settings: mean of both orientations
T28 chain: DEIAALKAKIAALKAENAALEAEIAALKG

4H745-AA = target: T29, 4H745-AA; settings: mean of both orientations
T29 chain: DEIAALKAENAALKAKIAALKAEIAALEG

4H570-AA = target: T30, 4H570-AA; settings: mean of both orientations
T30 chain: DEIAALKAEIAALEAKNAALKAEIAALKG

4H2698-AA = target: T31, 4H2698-AA; settings: mean of both orientations
T31 chain: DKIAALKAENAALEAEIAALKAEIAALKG

4H891-AA = target: T32, 4H891-AA; settings: mean of both orientations
T32 chain: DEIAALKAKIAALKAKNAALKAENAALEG

4H3395-AA = target: T33, 4H3395-AA; settings: mean of both orientations
T33 chain: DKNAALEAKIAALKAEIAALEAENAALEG

4H3130-AA = target: T34, 4H3130-AA; settings: mean of both orientations
T34 chain: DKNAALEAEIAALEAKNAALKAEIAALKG

4H909-AA = target: T35, 4H909-AA; settings: mean of both orientations
T35 chain: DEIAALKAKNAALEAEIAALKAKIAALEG

4H485-AA = target: T36, 4H485-AA; settings: mean of both orientations
T36 chain: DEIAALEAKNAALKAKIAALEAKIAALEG

4H3165-AA = target: T37, 4H3165-AA
T37 chain: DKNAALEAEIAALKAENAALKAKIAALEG

4H797-AA = target: T38, 4H797-AA; settings: mean of both orientations
T38 chain: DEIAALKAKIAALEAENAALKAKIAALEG

4H_GCN4, sequence (chain, as listed by the source): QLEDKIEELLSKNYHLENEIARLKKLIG

Binder: DEIAALEAENAALKAKNAALKAEIAALEG [4H249-AA]
- interaction score (4H_BCR): -1.72
- interaction score (4H249-AA): -0.781
- interaction score (4H_GCN4): -1.66
- interaction score (4H2774-AA): 1.92
- interaction score (4H2611-AA; mean of both orientations): -1.99
- interaction score (4H3381-AA): -1.79
- interaction score (4H_APH; mean of both orientations): -1.97

Binder: DENAALEAEIAALEAKIAALEAKNAALKG [4H1064-AA]
- interaction score (4H249-AA; mean of both orientations): -2.06
- interaction score (4H2774-AA): -1.39

Next, values leading:

- interaction score (4H_BCR): -1.28
- interaction score (4H_GCN4): -1.31
- interaction score (4H2611-AA): -1.74
- interaction score (4H384-AA): -0.758
- interaction score (4H_APH; mean of both orientations): -1.67
- interaction score (4H3590-AA): 2.09
Binder: DENAALEAKIAALKAEIAALEAKIAALKG [4H1350-AA]

- interaction score (4H_BCR): -0.379
- interaction score (4H249-AA; mean of both orientations): -1.16
- interaction score (4H717-AA): -1.25
- interaction score (4H_GCN4): -1.58
- interaction score (4H2253-AA): -1.02
- interaction score (4H3606-AA): -0.638
- interaction score (4H2774-AA): -0.839
- interaction score (4H_APH): -1.76
- interaction score (4H2330-AA): -1.33
Binder: DKIAALEAEIAALKAKNAALEAKIAALEG [4H2165-AA]

- interaction score (4H3120-AA): 0.706
- interaction score (4H2438-AA): 1.55
- interaction score (4H2865-AA): -0.751
- interaction score (4H458-AA): -0.706
- interaction score (4H2473-AA): -0.93
- interaction score (4H710-AA): -0.564
- interaction score (4H_BCR): -1.56
- interaction score (4H3410-AA): -0.247
- interaction score (4H_GCN4): -1.45
- interaction score (4H930-AA): -1.18
- interaction score (4H629-AA): -1.12
- interaction score (4H3753-AA): -0.82
- interaction score (4H2253-AA): -1.44
- interaction score (4H3016-AA): -0.959
- interaction score (4H2274-AA): -0.953
- interaction score (4H2389-AA): -1.15
- interaction score (4H3381-AA): -1.28
- interaction score (4H310-AA): -0.553
- interaction score (4H94-AA): -0.994
- interaction score (4H850-AA): -0.784
- interaction score (4H384-AA): -0.727
- interaction score (4H745-AA): -1.3
- interaction score (4H_APH; mean of both orientations): -1.13
- interaction score (4H2330-AA): -1.41
- interaction score (4H570-AA): -0.556
- interaction score (4H2698-AA): 0.136
- interaction score (4H891-AA): -1.56
- interaction score (4H3395-AA): 0.689
- interaction score (4H3590-AA): 2.4
- interaction score (4H3130-AA): -0.837
- interaction score (4H909-AA): -1.36
- interaction score (4H485-AA): -0.799
- interaction score (4H3165-AA): -1.48
- interaction score (4H797-AA): -1.08
Binder: DENAALEAKIAALKAKIAALKAEIAALEG [4H1385-AA]
